In the PETadex activity labels:

B1: unnamed (protein)
chain: MRPSSSSLHTAVPLRPCSRAMTALIALATTIGLALALLTAAAPPAAAADLLSQGRLATASSTENTSTPASAAVDGNTGTRWASTFSDPQWLSVDLGATATISQVVLRWEAAYARAFQIQTSTNGTVWTTVHSTTTGTGGVQTLDVIGNGRYVRMLGTQRGTTYGYSLFEFQVYGSGGGTPPGNGIPDPTATSLETANGPLTTATYAVPSPSGYGSGTVTYPTDSGSYPGVVLMPGYQGTQQNLQWLAPRLASWGFVVINVGTNTLTDDPASRGRQITAAGSQLIALGNAAGNPLSGRVSGALGAVGHSMGGGGVMAALRDDARFRAGVPTAPYYPDTNFSAVTEPTFFLTCQSDPVAHGNDYAVPWYNSMSQAEKLYIEVPGDHLCPMTGSGNKAKQGKWIVSFLSLWLRADTRFSPFLCGPVRDPDKNNPSLVTRWMDTCSF
B2: unnamed (protein)
chain: MKFNLVAQAALFAATLAAGSAAWAVQIGPAPTKSALEASRGPFSTKSFTVSRPNGYGAGTVYYPTNAGAKVGVISIVPGYLSYQNSINWWGPRLASHGFVVVTIDTNSTTDQPASRSTQQLKALDQVVALGNTSSSPLYNKVDGSRTGVMGWSMGGGGSLISGQNRPSIKAAAPQAPWNSSTNFSSLTVPTLIFGCQSDATAAPASHAIPFYNSMSRNPKQYLEKSLGNHFCFNSANATVGLKGVAWMKRFVDGDTRYTSFACNNPNASGFSSFRTERCS
B3: unnamed (protein)
chain: MLALRTSFPRVLTRLLAASLATGLVAQAQAAGHERGPAPTAASLEAEAGPFQVASTVLGAPVGYKGGTVFYPKGPGPFALVAFAPGFIETQSWNAWWAKYLASHGFVVVNIDTKSTLAFPPARQREQLAALKDVIQRSHTRGTPFYGLVDATRLGAMGHSMGGGATLELARDTPHIKAIVPMAPFQTTGTDYSRLTVPTLILTCKGDIVASAKSHAAPIYDSLPSSLDKAHVELAGGGGHPCTTSLGTSAEVKKVAAKYGVSWLKRFLDEDTRYSPFLCGAEHEASLKTSVVSAYQGNCPH
B4: unnamed (protein)
chain: MKKLALKKLAACTFSLLFSLSAYSGGGDDGSNSGELPPPSTCSINCGFEIGPDPSLSFVRASQGPLPVSTSIVSSSVDGFGGGTIYYPSTITDEMATIAISPGFTASQSAIAWWGPLLASHGFVVITIDTNGTFDQPTSRGRQLDSALNYLISEGNRANSPVAGLIDENRLATMGHSMGGGGALQSAARNRLSASVPLAPFNTGSNDFNQINVPTMIMGCEDDGVAPVNSHAIPFYQDIPGTTDKALLEIANGPHNCANGGSSNNPTLSTYGVSWMKRFLDKDRRYDQFLCGPDHIADSRISDFRDTCTF
B5: unnamed (protein)
chain: MASQTNPYARGPNPTAASLEASAGPFTVRSFTVSRPSGYGAGTVYYPTNAGGTVGAIAIVPAYAARQSSIKWWGPRLASHGFVVITIDTNSTLDQPSSRSSQQMAALRQVASLNGTSSSPIYGKVDTARMGVMGWSMGGGGSLISAANNPSLKAAAPQAPWDSSTNFSSVTVPTLIFACENDSIAPVNSSALPIYDSMSRNAKQFLEINGGSHSCANSGNSNQALIGKKGVAWMKRFMDNDTRYSTFACENPNSTRVSDFRTANCSLEHHHHHH
B6: unnamed (protein)
chain: MNTSILEKMAVGASALLFSFSAFSFTPDPTPDPDPDPGPGPCQSDCDFTRGPNPTSSYLEANSGPYSVSTISVSRSVSGFGGGTIHYPTNTTGTMGAVAIVPGFLAGESSISWWGPRLASHGFVVITIATNSGFDQPDSRETQLGRALDYVISQSNSGSSPISGMVDSTRVGAMGWSMGGGGTLRLASGTRLSAAIPLAPWHSGSNNFNQIDTPTLIIACENDSTAPVGSHASPFYNRIPTSTDKAYLEINNGSHSCANGGGSNGGLLGKYGVSWMKRFIDQDTRYSQFLCGPNHAANSAISEYRETCNY
B7: unnamed (protein)
chain: MKTSNTRTARTIPGDTMSLGLTRLAKAAVLAAALLMSAAAQAQSNPYQKGPDPTAASLEATAGSFAVSTTSVSSLSASGFGGGTIYYPTAAGSYGAIAVSPGFTATQSSIAWLGPRLASHGFVVITIDTNSTLDQPDSRATQLMAALNYVVSLSQTSSSPIYGKVDANRLGVAGHSMGGGGTLIAARDNPTLKAAVPLAPWNTTKNFSSVTVPTLIIGCENDTVAPVSSHAIPFYNSIPSSTDKAYMELNGADHFCPQSSSNNPIIGKYMVAWMKRFVDNDTRYSPFLCGAPHQADLSSSAVSDYRSNCPY
B8: unnamed (protein)
chain: MKVNKAHSIAVGLLSLVAVAHTHAQTNPYAKGPDPTSAALEADGPFVVSTQNISGAGFGGATVYSPDTAGTYAVVAFCPGFTATRSSVASFGRRLATHGFVVATIDTNSTLDLPPSRGTQLLAALKTVSALSTGPAAGKIDASRKVVSGWSMGGGGTLYASASDETLKTAVGLAPYSAQKKKFSTSVPQLILGGEDDIVAPVSSHSLSFFNQLPNATPKLYAEIADADHYFPTDAESSQPASKLQIAWVKRFADNDTRYEQFLSTAGIQVDLTNGRLSDSRRESTTF
B9: unnamed (protein)
chain: MKTSNSRQRRWAVGLGLLLLAAAAHAQTNPYQKGPDPTSASLNATAGPFAVATTSVSSSASGFGGGTIYYPTTAGSYAAIAISPGFTATQSSIAWLGRRLASHGFVVITINTNSTLDQPPSRATQLMAALRYLTNSSSSTVRSRVDANRLGVAGHSMGGGGTLIAARDNPTLKAAVPLTPWSTTKSFSTVRVPTLIVGAENDTVAPVSSHSIPFYNSLPSSLDKAYAELNGASHFAPNSTNTPIGRYSVAWVKRFMDNDTRYSPFLCGAPHTAYATSTVFSDYRSTCPY
B10: unnamed (protein)
chain: MGSDDAWIRGEDPTEASIVAMGPYAVGEITEADGLRDGPLYGDASVGDGGATVYYPTDADPPFGGIAVYPGWLYNRDAIAGWGPFLASHGIVMMAVDPQSTGEQPEDRQLGQADALISLKGENTRAGSPLEGKLDTTRLGVMGWSMGGGATWLNADDTASEVYADLVVAISLCGWRPVAVGGNTKAASLQFASVADVLAGGMSQPVYDLIPASTPKMLIEFEGDDHFIANDPSGASWQVGRYGLSWIKVFLERDERYRPFLMTMPMNTTEVRPLM
B11: unnamed (protein)
chain: MSCRQEPLGDKMRFFSQKCLATVAAVVATLASGAALAQTSNPYQRGPNPTTSSLEASRGSFAISQFRVSRPSGFGGGTVYYPTNAGGTVGAIAVVPGFLARQSTINWWGPRLASHGFVVITIDTNSTSDQPASRATQLMAALRQVVTLNGTRSSPIYNKVDTSRLAVMGWSMGGGGTLIAARDNPTLKAAVPFAPYNTGTNFSASAVPTLIIGCESDTVAPVGQHAEAFYTSMTRPEKAYLEINGGSHTCATSGNRNQAMIGKYGVSWMKRFVDNDTRFSDFLCGAPHAADLRNTSVISEYRETCPY
B12: unnamed (protein)
chain: MLRFRVAASLPAEYLAVDNVVLEGTAQPPAPGGSGYQKGPEPTAALLEAGTGPFATASVTLSRSAASGFGGGTIHYPQGVAGPFAAVAVVPGYLAAESTIAWWGPRLASHGFVVITMATNNTLDLPASRSAQLTAALNQLKTLSATPGHAVFGLVDPNRLGVVGWSYGGGGTLLNAQANPQLKAAMALAPKTLLQGDFTGTTVPTLVVGCQADTTAAPAFWAIPFYNKVSASTGKAYLEVRGGSHFCVTSSTSDADKKALGKYGVAWLKRFMDEDTRYAPFLCGAPRQADVAGNAAISDYRDNCPY
B13: unnamed (protein)
chain: MKFRLAKLAVLSCALASASAFAQYQKGPDPTTSSLERAGSFATRTISVSSLAASGFGGGRIYYPTASGSYGVIAVSPGYTGTASTMYFWGERLSSHGFVVIVIETNTLLDQPGSRANQLMAALNYTVSQGNSRTSALYGKVDGNRRGVAGHSMGGGGTLIAAADNASLKAAVPMAPWNLSSLSFRGIRVPTMIFGCQSDAIAPVNTHAVPFYNAIPSSTKKGYVEMRLDDHFCVMNGGGHYETLGKLGISWFKRFIDEDTRYSKFLCGTEYNATVRSTEVSDSKNNCPY
B14: unnamed (protein)
chain: MRLIRRWPMRRLAIGFVLALVLSACDWRGPAPTQQSVVAARGPFAVGTIAVPSSAGFGGGTIYYPSDNAGPFAVISISPGFLGDQSSIAVWGPRLASNGFVAITINTTNGFILPDQRSQEQRQALTYVVNQGNNPSSPISGKVDPDRKGVAGHSMGGGATLISANADPTIRAAMPLAPWNGSASFPNVRVPTLIWACEADNIAPVASHASPMYNSIPSTTRKMYLSVDNGNHFCANSPDNSSQTVGKFGVSFFKKFLDTDTRYDPWVCGASRATAGTVLNEVRSTCPF
B15: unnamed (protein)
chain: MRAGFMGVGAAALVALAGCSSTPSNEGTSKPSVTAPTGGSTVIGAAGVGATAGRPASAGTGASPAVTPPSTTVPSGTTKPPAAAGSSAMGAAGAAVSGMAGSSASAGTGAIAGSSAAAGSSAAAGSGAAAGSGAAPGGGFIREAAPTEDSLKKNGEYSVKSYTEKDGLVGGMEYGDAALGGDGSELYYPEGATAPFAAMAIVPGFTAQRSDVAPWGPFLASHGIVALVIDTNSTGDQPDVRSRALLDALESIKKENMRDGSPVKGKIDTSRLGVMGWSMGGGGTWITADGHPELKVAVSLCGWIIQSIGSKTTVPSLQLAVQDDQLAAGMSQPVYMAIPDKTPKMLVEWSSGGHWINNSPENVDHQVGRYGLPWIKVYLENDERYRQFFKTKPTGASDFQTNQ

Each protein was assayed on BHET. Conditions: 120 h.
B1 was tested, and the plate clearing was “not clears the plate”.
With B2 the plate clearing was “not clears the plate”.
B3 was tested, and the plate clearing was “not clears the plate”.
In the case of B4, the plate clearing is reported as “not clears the plate”.
With B5 the plate clearing was “not clears the plate”.
B6 was tested, and the plate clearing was “not clears the plate”.
For B7, the plate clearing was “not clears the plate”.
B8 was tested, and the plate clearing was “not clears the plate”.
B9 was tested, and the plate clearing was “not clears the plate”.
B10 was tested, and the plate clearing was “clears the plate (z > 3 vs empty vector)”.
For B11, the plate clearing was “not clears the plate”.
B12 was tested, and the plate clearing was “not clears the plate”.
With B13 the plate clearing was “not clears the plate”.
In the case of B14, the plate clearing is reported as “not clears the plate”.
In the case of B15, the plate clearing is reported as “clears the plate (z > 3 vs empty vector)”.
